In patent publication US11491212 one finds kcat, KM and kcat/KM data, which are given here for 14 proteins.

Sequence of Factor X (FX), P00742 (P00742 whole entry, looked up): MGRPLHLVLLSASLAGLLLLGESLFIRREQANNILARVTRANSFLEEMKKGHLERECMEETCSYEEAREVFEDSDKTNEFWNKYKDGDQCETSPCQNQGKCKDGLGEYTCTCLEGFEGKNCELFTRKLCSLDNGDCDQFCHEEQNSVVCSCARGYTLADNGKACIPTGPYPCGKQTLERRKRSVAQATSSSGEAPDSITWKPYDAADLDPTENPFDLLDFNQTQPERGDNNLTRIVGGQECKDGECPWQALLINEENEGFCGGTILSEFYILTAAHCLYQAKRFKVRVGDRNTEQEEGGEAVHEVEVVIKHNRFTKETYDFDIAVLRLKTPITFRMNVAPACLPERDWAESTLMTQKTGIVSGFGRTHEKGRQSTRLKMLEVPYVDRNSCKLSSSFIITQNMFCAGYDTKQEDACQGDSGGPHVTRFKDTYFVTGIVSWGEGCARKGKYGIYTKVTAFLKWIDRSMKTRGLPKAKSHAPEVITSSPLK
Sequence of Factor X, P00742 (P00742 whole entry, looked up): as above

B1: FIXa-K247N/N249S/R318Y/T343R/R403E (protein)
chain 1: not shown
chain 2: not shown
Take B1: the turnover number (kcat) (in general, the number of substrate molecules converted per active site and unit of time at saturation) in the data set with Factor X (FX), P00742 turned out to be 3.7 s⁻¹. Moreover, the KM – broadly, the substrate concentration at which the rate is half of its maximum – in the data set with Factor X, P00742 turned out to be 0.105 µM.

B2: FIXa-Y155F/K247N/N249S/R338E/T343R/E410N (protein)
chain 1: not shown
chain 2: not shown
On to B2, for which the turnover number (kcat) in the data set with Factor X (FX), P00742 came out at 4.8 s⁻¹. Moreover, the KM with Factor X, P00742 was 0.027 µM.

B3: FIXa-Y155F/K247N/N249S/R338E/E410N (protein)
chain 1: not shown
chain 2: not shown
Consider B3, for which, in the data set with Factor X (FX), P00742, the catalytic constant (kcat) was 7.3 s⁻¹. The KM with Factor X, P00742 came to 0.0177 µM.

B4: FIXa-K247N/N249S/R318Y/T343R/E410N (protein)
chain 1: not shown
chain 2: not shown
B4: the kcat with Factor X (FX), P00742 is 6.1 s⁻¹. In addition, the KM in the data set with Factor X, P00742 was 0.0401 µM.

B5: FIXa-Y155F/K247N/N249S/R318Y/T343R/E410N (protein)
chain 1: not shown
chain 2: not shown
Consider B5, for which, in the data set with Factor X (FX), P00742, the kcat came out at 8.1 s⁻¹. In addition, the KM with Factor X, P00742 worked out at 0.0381 µM.

B6: FIXa-K247N/N249S/R318Y/R338E/T343R/E410N (protein)
chain 1: not shown
chain 2: not shown
As to B6, the catalytic constant (kcat) in the data set with Factor X (FX), P00742 stood at 8.8 s⁻¹. Further, in the data set with Factor X, P00742, the KM was determined as 0.0328 µM.

B7: FIXa-Y155F/K247N/N249S/T343R/R403E/E410N (protein)
chain 1: not shown
chain 2: not shown
B7: the kcat in the data set with Factor X (FX), P00742 is 15 s⁻¹. Further, in the data set with Factor X, P00742, the KM is 0.052 µM.

B8: FIXa-Y155F/K247N/N249S/R338E/R403E/E410N (protein)
chain 1: not shown
chain 2: not shown
Turning to B8, the Michaelis constant (KM) with Factor X (FX), P00742 amounted to 0.0487 µM. Moreover, the kcat/KM (as a rule, the second-order rate constant that governs catalysis at low substrate concentration) with Factor X, P00742 amounted to 1.1e+08 M⁻¹ s⁻¹.

B9: FIXa-K247N/N249S/R338E/R403E/E410N (protein)
chain 1: not shown
chain 2: not shown
Regarding B9, the KM in the data set with Factor X (FX), P00742 was 0.025 µM. Further, in the data set with Factor X, P00742, the kcat/KM came to 1.9e+08 M⁻¹ s⁻¹.

B10: FIXa-K247N/N249S/R338E/T343R/E410N (protein)
chain 1: not shown
chain 2: not shown
As to B10, the catalytic constant (kcat) with Factor X (FX), P00742 is 7.9 s⁻¹. For the same protein, the Michaelis constant (KM) with Factor X, P00742 amounted to 0.0275 µM.

B11: FIXa-Y155F/K247N/N249S/R318Y/T343R/R403E/E410N (protein)
chain 1: not shown
chain 2: not shown
Regarding B11, the kcat with Factor X (FX), P00742 is 9 s⁻¹. The Michaelis constant (KM) with Factor X, P00742 stood at 0.0606 µM.

B12: FIXa-Y155F/K247N/N249S/R318Y/T343R/R403E (protein)
chain 1: not shown
chain 2: not shown
For the protein B12, the kcat with Factor X (FX), P00742 came to 7.5 s⁻¹. For the same protein, in the data set with Factor X, P00742, the Michaelis-Menten constant (KM) is 0.0605 µM.

B13: FIXa-Y155F/K247N/N249S/R338E/T343R/R403E (protein)
chain 1: not shown
chain 2: not shown
With B13, the kcat with Factor X (FX), P00742 turned out to be 14.6 s⁻¹. For the same protein, in the data set with Factor X, P00742, the Michaelis-Menten constant (KM) was 0.0251 µM.

B14: FIXa-K247N/N249S/R318Y/T343R/R403E/E410N (protein)
chain 1: not shown
chain 2: not shown
Take B14: the kcat in the data set with Factor X (FX), P00742 came to 9.5 s⁻¹. Also, the Michaelis-Menten constant (KM) with Factor X, P00742 turned out to be 0.0805 µM.
